Reference: US6548643
Each block holds one binder with its values, some of them ahead of it.

Columns and labels:
Assay in all cases: cell-based or functional assay
[1] = target: H-2L^d class I molecule on P815 cells (mouse) (UniProt P01897)
[2] = target: H-2K^d class I molecule on P815 cells (mouse) (UniProt P01902)
[3] = target: T1, H-2D^d class I molecule on P815 cells (mouse) (UniProt P01900)
T1 sequence (MHC heavy, looked up): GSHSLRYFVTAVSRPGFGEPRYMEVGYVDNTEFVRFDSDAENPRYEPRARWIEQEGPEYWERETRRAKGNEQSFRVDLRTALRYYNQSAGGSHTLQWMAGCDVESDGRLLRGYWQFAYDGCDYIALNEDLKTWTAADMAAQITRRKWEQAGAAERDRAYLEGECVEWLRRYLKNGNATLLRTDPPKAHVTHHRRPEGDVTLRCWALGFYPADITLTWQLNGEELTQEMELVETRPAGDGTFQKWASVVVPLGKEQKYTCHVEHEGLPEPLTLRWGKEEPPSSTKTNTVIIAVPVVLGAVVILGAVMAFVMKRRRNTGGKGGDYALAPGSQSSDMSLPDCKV

[4] = target: H-2K^b class I molecule on RMA cells (mouse) (UniProt P01901)
Chain of UniProt P01901 (P01901 22-369): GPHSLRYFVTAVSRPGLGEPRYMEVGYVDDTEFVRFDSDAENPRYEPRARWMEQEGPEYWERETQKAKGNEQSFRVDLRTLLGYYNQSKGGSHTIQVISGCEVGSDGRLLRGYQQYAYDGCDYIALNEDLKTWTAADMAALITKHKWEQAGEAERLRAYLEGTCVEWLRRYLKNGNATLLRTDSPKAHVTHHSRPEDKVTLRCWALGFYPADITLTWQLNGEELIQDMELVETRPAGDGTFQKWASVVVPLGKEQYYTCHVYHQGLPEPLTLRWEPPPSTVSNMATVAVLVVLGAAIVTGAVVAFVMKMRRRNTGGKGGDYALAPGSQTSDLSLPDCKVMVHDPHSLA

[5] = target: H-2D^b class I molecule on RMA cells (mouse) (UniProt P01899)

Chain of UniProt P01902 (P01902 22-368): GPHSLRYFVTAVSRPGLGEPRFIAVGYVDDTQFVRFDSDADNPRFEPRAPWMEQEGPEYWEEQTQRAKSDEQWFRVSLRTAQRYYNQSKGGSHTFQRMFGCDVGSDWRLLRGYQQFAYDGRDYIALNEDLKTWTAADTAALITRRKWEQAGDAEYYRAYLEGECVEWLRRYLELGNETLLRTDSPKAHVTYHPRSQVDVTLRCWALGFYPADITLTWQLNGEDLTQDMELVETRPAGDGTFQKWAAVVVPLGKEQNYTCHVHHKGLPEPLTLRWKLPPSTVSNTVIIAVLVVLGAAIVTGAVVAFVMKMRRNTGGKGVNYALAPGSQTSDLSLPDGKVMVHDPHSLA

Binder: KNYGQLDIF
% lysis of peptide-pulsed P815 target cells by CTL of mannan-HMFG immunised BALB/c mice (51Cr release) [1]: 0%

Binder: YYQELQRDI
% lysis of peptide-pulsed P815 target cells by mannan-HMFG CTL, E:T 50:1 [2]: 50%

Binder: SAPDTRPAP
% lysis of peptide-pulsed P815 target cells by mannan-HMFG CTL, E:T 50:1 [3]: 62% | % lysis of peptide-pulsed RMA target cells by mannan-HMFG CTL [4]: 80%

Binder: VPSSTEKNA
% lysis of peptide-pulsed P815 target cells by mannan-HMFG CTL, E:T 50:1 [1]: 78%

Binder: AVSMTSSVL
% lysis of peptide-pulsed P815 target cells by mannan-HMFG CTL, E:T 50:1 [2]: 77% | % lysis of peptide-pulsed RMA target cells by mannan-HMFG CTL, E:T 50:1 [4]: 18% | % lysis of peptide-pulsed RMA target cells by mannan-HMFG CTL, E:T 100:1 [4]: 40% | % lysis of peptide-pulsed RMA target cells by mannan-HMFG CTL, E:T 50:1 [5]: 18% | % lysis of peptide-pulsed RMA target cells by mannan-HMFG CTL, E:T 100:1 [5]: 40%

Binder: APDTRPAPG
% lysis of peptide-pulsed P815 target cells by mannan-HMFG CTL, E:T 50:1 [1]: 50%

Binder: APGSTAPPA
% lysis of peptide-pulsed RMA target cells by mannan-HMFG CTL [5]: 70%

Binder: CRRKNYGQL
% lysis of peptide-pulsed RMA target cells by mannan-HMFG CTL, E:T 50:1 [4]: 20% | % lysis of peptide-pulsed RMA target cells by mannan-HMFG CTL, E:T 100:1 [4]: 42% | % lysis of peptide-pulsed RMA target cells by mannan-HMFG CTL, E:T 50:1 [5]: 20% | % lysis of peptide-pulsed RMA target cells by mannan-HMFG CTL, E:T 100:1 [5]: 42%

Other lines, results leading:

% lysis of peptide-pulsed P815 target cells by CTL of mannan-HMFG immunised BALB/c mice (51Cr release) [3]: 0%
Binder: YGQLDIFPA

% lysis of peptide-pulsed P815 target cells by CTL of mannan-HMFG immunised BALB/c mice (51Cr release) [2]: 0%
Binder: NYGQLDIFP

% lysis of peptide-pulsed RMA target cells by mannan-HMFG CTL, E:T 50:1 [5]: 50%
Binder: SAPDNRPAL

% lysis of peptide-pulsed P815 target cells by mannan-HMFG CTL, E:T 50:1 [3]: 0%
Binder: SVPSSTEKN
